These results are taken from patent publication US20250076311A1 (Chugai, published 2025).

In test [1] the target is T1, human FcγRIIaH extracellular domain with C-terminal His-tag (human, UniProt P12318 34-217).
T1 construct: also called human FcγRIIa (type H); FcgRIIaH
T1 sequence: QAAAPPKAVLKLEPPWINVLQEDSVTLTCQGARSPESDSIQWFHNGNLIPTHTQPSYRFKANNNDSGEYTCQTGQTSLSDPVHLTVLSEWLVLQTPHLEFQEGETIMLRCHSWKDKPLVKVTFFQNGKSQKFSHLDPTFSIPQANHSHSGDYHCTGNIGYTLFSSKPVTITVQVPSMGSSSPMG
Put plainly: SPR; KD of SG1 / KD of variant. (In SPR one partner is held on a chip, and binding of the other changes the refractive index at the surface.)

Test [2] addresses T2, cynomolgus monkey FcγRIIa3 extracellular domain with C-terminal His-tag (cynomolgus monkey).
T2 construct: also called cyno FcγRIIa3; FcgRIIa3
T2 chain: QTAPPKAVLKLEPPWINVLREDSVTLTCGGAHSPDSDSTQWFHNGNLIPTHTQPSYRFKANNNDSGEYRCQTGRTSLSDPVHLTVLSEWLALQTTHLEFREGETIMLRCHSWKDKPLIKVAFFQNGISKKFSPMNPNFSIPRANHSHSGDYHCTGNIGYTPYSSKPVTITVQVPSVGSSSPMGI
Briefly: SPR; KD of SG1 / KD of variant.

Test [3] concerns the target T3, human FcγRIIIaV extracellular domain with C-terminal His-tag (human, UniProt P08637 17-208).
T3 construct: also called human FcgRIIIaV; FcgRIIIaV
Briefly: SPR; KD of SG1 / KD of variant.
T3 sequence (P08637 17-208 F176V): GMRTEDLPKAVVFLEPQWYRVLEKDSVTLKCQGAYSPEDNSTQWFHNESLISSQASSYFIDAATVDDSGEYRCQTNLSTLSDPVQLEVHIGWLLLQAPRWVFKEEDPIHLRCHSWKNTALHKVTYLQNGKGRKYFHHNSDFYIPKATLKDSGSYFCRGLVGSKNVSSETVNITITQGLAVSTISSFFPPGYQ

For test [4], the target named is T4, cynomolgus monkey FcγRIIIaS extracellular domain with C-terminal His-tag (cynomolgus monkey, UniProt Q8SPW2 21-206 at identity 1.00)).
T4 construct: also called cyno FcγRIIIaS; FcgRIIIaS
T4 chain: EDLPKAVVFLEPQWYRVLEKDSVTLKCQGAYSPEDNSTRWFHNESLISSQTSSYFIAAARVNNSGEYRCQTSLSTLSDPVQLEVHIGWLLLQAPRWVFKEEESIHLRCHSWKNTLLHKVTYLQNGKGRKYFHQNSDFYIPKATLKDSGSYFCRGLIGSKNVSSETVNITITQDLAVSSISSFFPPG
Put plainly: SPR; KD of SG1 / KD of variant.

In test [5] the target is T5, human FcγRIIb extracellular domain with C-terminal His-tag (human, UniProt P31994 43-217).
T5 construct: also called human FcgRIIb; FcgRIIb
T5 sequence: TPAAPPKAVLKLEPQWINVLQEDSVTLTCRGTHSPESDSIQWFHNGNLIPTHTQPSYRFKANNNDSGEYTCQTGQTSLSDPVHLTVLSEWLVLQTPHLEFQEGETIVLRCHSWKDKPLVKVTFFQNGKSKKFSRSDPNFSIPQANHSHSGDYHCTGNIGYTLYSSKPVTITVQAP
Briefly: SPR; KD of SG1 / KD of variant.

Test [6] has as its target T6, human FcγRIIaR extracellular domain with C-terminal His-tag (human, UniProt P12318 34-217).
T6 construct: also called human FcγRIIa (type R); FcgRIIaR
T6 chain: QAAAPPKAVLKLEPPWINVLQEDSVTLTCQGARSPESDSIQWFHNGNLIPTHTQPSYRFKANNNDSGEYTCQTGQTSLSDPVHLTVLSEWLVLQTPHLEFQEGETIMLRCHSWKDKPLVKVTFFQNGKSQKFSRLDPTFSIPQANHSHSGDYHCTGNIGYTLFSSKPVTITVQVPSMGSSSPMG
Put plainly: SPR; KD of SG1 / KD of variant.

In test [7] the target is T7, cynomolgus monkey FcγRIIa1 extracellular domain with C-terminal His-tag (cynomolgus monkey).
T7 construct: also called cyno FcγRIIa1; FcgRIIa1
T7 chain: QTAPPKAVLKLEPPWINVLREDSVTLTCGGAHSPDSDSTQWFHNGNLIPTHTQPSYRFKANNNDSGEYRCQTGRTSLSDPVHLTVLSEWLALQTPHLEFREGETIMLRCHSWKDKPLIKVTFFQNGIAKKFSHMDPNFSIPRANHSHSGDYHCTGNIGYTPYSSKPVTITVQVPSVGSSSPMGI
Put plainly: SPR; KD of SG1 / KD of variant.

The target of test [8] is T8, cynomolgus monkey FcγRIIa2 extracellular domain with C-terminal His-tag (cynomolgus monkey).
T8 construct: also called cyno FcγRIIa2; FcgRIIa2
T8 chain: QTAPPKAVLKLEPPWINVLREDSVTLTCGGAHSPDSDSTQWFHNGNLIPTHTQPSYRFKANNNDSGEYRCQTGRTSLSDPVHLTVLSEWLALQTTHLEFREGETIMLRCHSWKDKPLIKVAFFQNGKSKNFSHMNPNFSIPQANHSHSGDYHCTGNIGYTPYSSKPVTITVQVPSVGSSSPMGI
Briefly: SPR; KD of SG1 / KD of variant.

In test [9] the target is T9, cynomolgus monkey FcγRIIb extracellular domain with C-terminal His-tag (cynomolgus monkey).
T9 construct: also called cyno FcγRIIb; cynoFcγRIIb
T9 chain: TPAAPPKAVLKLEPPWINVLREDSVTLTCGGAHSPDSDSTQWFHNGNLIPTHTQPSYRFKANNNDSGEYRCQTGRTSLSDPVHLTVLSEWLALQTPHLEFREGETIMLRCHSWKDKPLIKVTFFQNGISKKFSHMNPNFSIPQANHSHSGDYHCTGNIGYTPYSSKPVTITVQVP
Briefly: SPR; KD of SG1 / KD of variant.

The target of test [10] is T10, human FcγRIIIaV extracellular domain with C-terminal His-tag (human, UniProt P08637 17-208).
T10 construct: also called human FcgRIIIaV
Briefly: SPR (Biacore), antibody captured, FcgR as analyte. The method, then:
(§1) The kinetic analysis of interactions between these antibodies and FcγR was carried out using BIACORE® T200 or BIACORE® 4000 (GE Healthcare). HBS-EP+ (GE Healthcare) was used as the running buffer, and the measurement temperature was set to 25° C. […] After the measurement, the antibody captured on the chip was washed off by allowing reaction with 10 mM glycine-HCl, pH1.5 and 25 mM NaOH so that the chip was regenerated and used repeatedly. The sensorgrams obtained as measurement results were analyzed by the 1:1 Langmuir binding model using the BIACORE® Evaluation Software to calculate the binding rate constant ka (L/mol/s) and dissociation rate constant kd (1/s), and the dissociation constant KD (mol/L) was calculated from these values. […] Regarding such interactions, KD values were calculated using the following 1:1 binding model described in BIACORE® T100 Software Handbook BR1006-48 Edition AE.
T10 sequence (P08637 17-208 F176V): as the sequence (P08637 17-208 F176V) above

Test [11] has as its target T11, cynomolgus monkey FcγRIIa1 extracellular domain with C-terminal His-tag (cynomolgus monkey).
T11 construct: also called cyno FcgRIIa1; cynoFcγRIIa1
T11 chain: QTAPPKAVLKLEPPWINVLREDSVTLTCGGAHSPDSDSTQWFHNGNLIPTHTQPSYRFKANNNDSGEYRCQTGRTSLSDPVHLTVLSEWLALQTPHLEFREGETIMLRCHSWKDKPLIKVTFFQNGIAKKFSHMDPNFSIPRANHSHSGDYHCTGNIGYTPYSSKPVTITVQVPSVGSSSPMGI
Briefly: SPR (Biacore), antibody captured, FcgR as analyte. The method, then:
as §1

B1: M103205H795-MY285 (heavy chain) with M103202L889-SK1 (light chain) (antibody, human IgG1, kappa, name in EU numbering)
heavy: QVTLKESGPVLVKPTETLTLTCTVSGIDLSHDDISWVRQAPGKGLEWVGIISYAGSTYYASWAKGRLTISKDTSKNQVVLTMTNMDPVDTATYYCARGVPAYSHGGDLWGQGTLVTVSSASTKGPSVFPLAPSSKSTSGGTAALGCLVKDYFPEPVTVSWNSGALTSGVHTFPAVLQSSGLYSLSSVVTVPSSSLGTQTYICNVNHKPSNTKVDKKVEPKSCDKTHTCPPCPAPELLIGPSVFLFPPKPKDTLMISRTPEVTCVVVDVSDEDPEVKFNWYVDGVEVHNAKTKPREELYNSTYRVVSVLTVLHQDWLNGKEYKCKVSNKALPKPIEKTISKAKGQPREPQVYTLPPSREEMTKNQVSLTCLVKGFYPSDIAVEWESNGQPENNYKTTPPVLDSDGSFFLYSKLTVDKSRWQQGNVFSCSVMHEALHNHYTQKSLSLSP
light: DIVMTQSPATLSLSPGERATLSCTSSQSVYHANWLSWFQQKPGQPPKLLIYWASTLAYGVPSRFSGSGSGTDFTLTISSLQPEDAATYYCAGGYGGGRYAFGQGTKVEIKRTVAAPSVFIFPPSDEQLKSGTASVVCLLNNFYPREAKVQWKVDNALQSGNSQESVTEQDSKDSTYSLSSTLTLSKADYEKHKVYACEVTHQGLSSPVTKSFNRGEC
notes: Substitutions introduced into M103205H795-SG1; positions in EU numbering
Consider B1, for which the “KD fold (SG1 = 1)” value in [1] was 6.3 fold; in [2], 2.5 fold; in [3] it was 0.05 fold; in [4], 0.12 fold; in test [5], 1.2 fold; in test [6], 2 fold. Besides, the “KD fold (SG1 = 1)” value stood at 2 fold in [7], 3 fold in test [8] and 3.1 fold in [9].

B2: M103205H795-MY392 / M103202L889-SK1 (antibody, human IgG1, kappa, name in EU numbering)
heavy: QVTLKESGPVLVKPTETLTLTCTVSGIDLSHDDISWVRQAPGKGLEWVGIISYAGSTYYASWAKGRLTISKDTSKNQVVLTMTNMDPVDTATYYCARGVPAYSHGGDLWGQGTLVTVSSASTKGPSVFPLAPSSKSTSGGTAALGCLVKDYFPEPVTVSWNSGALTSGVHTFPAVLQSSGLYSLSSVVTVPSSSLGTQTYICNVNHKPSNTKVDKKVEPKSCDKTHTCPPCPAPELLTGPSVFLFPPKPKDTLMISRTPEVTCVVVDVSDEDPEVKFNWYVDGVEVHNAKTKPREEQYNLTYRVVSVLTVLHQDWLNGKEYKCKVSNKALPKPIEKTISKAKGQPREPQVYTLPPSREEMTKNQVSLTCLVKGFYPSDIAVEWESNGQPENNYKTTPPVLDSDGSFFLYSKLTVDKSRWQQGNVFSCSVMHEALHNHYTQKSLSLSP
light: DIVMTQSPATLSLSPGERATLSCTSSQSVYHANWLSWFQQKPGQPPKLLIYWASTLAYGVPSRFSGSGSGTDFTLTISSLQPEDAATYYCAGGYGGGRYAFGQGTKVEIKRTVAAPSVFIFPPSDEQLKSGTASVVCLLNNFYPREAKVQWKVDNALQSGNSQESVTEQDSKDSTYSLSSTLTLSKADYEKHKVYACEVTHQGLSSPVTKSFNRGEC
Turning to B2, the Kd in [10] came to 9300 nM.

B3: M103205H795-MY535 / M103202L889-SK1 (antibody, human IgG1, kappa, name in EU numbering)
heavy: QVTLKESGPVLVKPTETLTLTCTVSGIDLSHDDISWVRQAPGKGLEWVGIISYAGSTYYASWAKGRLTISKDTSKNQVVLTMTNMDPVDTATYYCARGVPAYSHGGDLWGQGTLVTVSSASTKGPSVFPLAPSSKSTSGGTAALGCLVKDYFPEPVTVSWNSGALTSGVHTFPAVLQSSGLYSLSSVVTVPSSSLGTQTYICNVNHKPSNTKVDKKVEPKSCDKTHTCPPCPGPEWLTGPSVFLFPPKPKDTLMISRTPEVTCVVVDVSDEDPEVKFNWYVDGVEVHNAKTKPREEQYNSTYRVVSVLTVLHQDWLNGKEYKCKVSNKALPKPIEKTISKAKGQPREPQVYTLPPSREEMTKNQVSLTCLVKGFYPSDIAVEWESNGQPENNYKTTPPVLDSDGSFFLYSKLTVDKSRWQQGNVFSCSVMHEALHNHYTQKSLSLSP
light: DIVMTQSPATLSLSPGERATLSCTSSQSVYHANWLSWFQQKPGQPPKLLIYWASTLAYGVPSRFSGSGSGTDFTLTISSLQPEDAATYYCAGGYGGGRYAFGQGTKVEIKRTVAAPSVFIFPPSDEQLKSGTASVVCLLNNFYPREAKVQWKVDNALQSGNSQESVTEQDSKDSTYSLSSTLTLSKADYEKHKVYACEVTHQGLSSPVTKSFNRGEC
Regarding B3, the Kd in [11] was found to be 1500 nM; in test [10], 5200 nM.

B4: M103205H795-MY536 / M103202L889-SK1 (antibody, human IgG1, kappa, name in EU numbering)
heavy: QVTLKESGPVLVKPTETLTLTCTVSGIDLSHDDISWVRQAPGKGLEWVGIISYAGSTYYASWAKGRLTISKDTSKNQVVLTMTNMDPVDTATYYCARGVPAYSHGGDLWGQGTLVTVSSASTKGPSVFPLAPSSKSTSGGTAALGCLVKDYFPEPVTVSWNSGALTSGVHTFPAVLQSSGLYSLSSVVTVPSSSLGTQTYICNVNHKPSNTKVDKKVEPKSCDKTHTCPPCPGPEWLTGPVVFLFPPKPKDTLMISRTPEVTCVVVDVSDEDPEVKFNWYVDGVEVHNAKTKPREEQYNSTYRVVSVLTVLHQDWLNGKEYKCKVSNKALPKPIEKTISKAKGQPREPQVYTLPPSREEMTKNQVSLTCLVKGFYPSDIAVEWESNGQPENNYKTTPPVLDSDGSFFLYSKLTVDKSRWQQGNVFSCSVMHEALHNHYTQKSLSLSP
light: DIVMTQSPATLSLSPGERATLSCTSSQSVYHANWLSWFQQKPGQPPKLLIYWASTLAYGVPSRFSGSGSGTDFTLTISSLQPEDAATYYCAGGYGGGRYAFGQGTKVEIKRTVAAPSVFIFPPSDEQLKSGTASVVCLLNNFYPREAKVQWKVDNALQSGNSQESVTEQDSKDSTYSLSSTLTLSKADYEKHKVYACEVTHQGLSSPVTKSFNRGEC
Consider B4, for which the Kd in test [11] was found to be 1200 nM; in test [10] it was 2700 nM.

The Kd is the free concentration of one partner at which half of the binding sites on the other are occupied at equilibrium, for simple one-to-one binding.
